This assay deals with T1, HA-tagged ubiquitin-Vinyl Sulfone (UniProt P0CG48 1-76, vinyl sulfone (position not given)).
T1 construct: ubiquitin, the mature cut product of a ubiquitin precursor, carrying a vinyl sulfone warhead; Commercial active-site probe; also called HA-UbVS; HA-Ub-VS; source: bought: Boston Biochem
Nature of the assay: active-site-directed covalent labelling with HA-UbVS; purified 26S proteasomes (25 nM) incubated with HA-UbVS for 1 h at 37°C, boiled in reducing sample buffer, SDS-PAGE, HA immunoblot; without Aur, and after 2 μM Aur for 10 min (labelling reduced). Conditions: both partners purified.

Data on 1 molecule can be found in publication PMC4170648, “Clinically used antirheumatic agent auranofin is a proteasomal deubiquitinase inhibitor and inhibits tumor growth” (Oncotarget, 2014).

B1: UCHL5 (enzyme, human, UniProt Q9Y5K5 1-329, looked up)
chain: MTGNAGEWCLMESDPGVFTELIKGFGCRGAQVEEIWSLEPENFEKLKPVHGLIFLFKWQPGEEPAGSVVQDSRLDTIFFAKQVINNACATQAIVSVLLNCTHQDVHLGETLSEFKEFSQSFDAAMKGLALSNSDVIRQVHNSFARQQMFEFDTKTSAKEEDAFHFVSYVPVNGRLYELDGLREGPIDLGACNQDDWISAVRPVIEKRIQKYSEGEIRFNLMAIVSDRKMIYEQKIAELQRQLAEEEPMDTDQGNSMLSAIQSEVAKNQMLIEEEVQKLKRYKIENIRRKHNYLPFIMELLKTLAEHQQLIPLVEKAKEKQNAKKAQETK
notes: UCHL5/Uch37, human, deubiquitinase associated with the 19S regulatory particle, present in purified 26S proteasomes; It stood in the assay as a component of the bought 26S proteasome and was resolved as a labelled band on SDS-PAGE; PDB 3RIS was used only for docking of the small molecule; also called UCHL5/Uch37; source: bought: Boston Biochem, as part of purified human 26S proteasomes
For B1, the binding result was “binds”.
